Measured values published in publication PMC6377630, “NapM enhances the survival of Mycobacterium tuberculosis under stress and in macrophages” (Communications Biology, 2019).

Experiments:
[1] = biological target: DnaA (M. tuberculosis H37Ra) (UniProt P9WNW3); assay: SPR; DnaA immobilised on CM5 chip (5.7 μM), NapM proteins passed over; Biacore 3000; 10 mM HEPES, 150 mM NaCl, 3 mM EDTA, 0.01% surfactant P20, pH 7.4; 25 °C
DnaA = biological target: T1, DnaA (M. tuberculosis H37Ra, UniProt P9WNW3 1-507); assay: as above; settings: both partners purified
T1 construct: also called DnaA protein
T1 sequence: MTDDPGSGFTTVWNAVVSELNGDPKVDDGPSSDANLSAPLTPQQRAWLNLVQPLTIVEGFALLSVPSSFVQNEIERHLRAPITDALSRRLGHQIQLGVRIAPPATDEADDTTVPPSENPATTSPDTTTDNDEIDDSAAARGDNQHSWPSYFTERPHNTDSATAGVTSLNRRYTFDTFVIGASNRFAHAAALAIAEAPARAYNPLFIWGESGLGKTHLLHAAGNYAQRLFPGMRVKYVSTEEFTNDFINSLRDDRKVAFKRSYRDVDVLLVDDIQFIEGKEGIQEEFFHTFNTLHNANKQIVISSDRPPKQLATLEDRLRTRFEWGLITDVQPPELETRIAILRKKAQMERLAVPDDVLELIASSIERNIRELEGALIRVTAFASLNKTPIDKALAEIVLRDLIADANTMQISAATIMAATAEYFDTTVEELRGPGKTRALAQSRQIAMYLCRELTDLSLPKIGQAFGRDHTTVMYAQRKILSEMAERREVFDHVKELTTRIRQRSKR

| Molecule | Kd [1] [nM] | Kd (DnaA) [nM] |
| --- | --- | --- |
| NapM C-terminal domain (CTD) (domain or fragment) | 500 |  |
| NapM (Rv0047c), nucleoid-associated protein (natural protein) MLELAILGLLIESPMHGYELRKRLTGLLGAFRAFSYGSLYPALRRMQADGLIAENAAPAGTPVRRARRVYQLTDKGRRRFGELVADTGPHNYTDDGFGVHLAFFNRTPAEARMRILEGRRRQVEERREGLREAVARASSSFDRYTRQLHQLGLESSEREVKWLNELIAAERAAPNPAEQT |  | 380 |
